Earlier results in paper PMC6767261.

Molecular target: Endothelin receptor type B (UniProt P24530)
Test: radioligand

Chain of UniProt P24530 (P24530 27-442): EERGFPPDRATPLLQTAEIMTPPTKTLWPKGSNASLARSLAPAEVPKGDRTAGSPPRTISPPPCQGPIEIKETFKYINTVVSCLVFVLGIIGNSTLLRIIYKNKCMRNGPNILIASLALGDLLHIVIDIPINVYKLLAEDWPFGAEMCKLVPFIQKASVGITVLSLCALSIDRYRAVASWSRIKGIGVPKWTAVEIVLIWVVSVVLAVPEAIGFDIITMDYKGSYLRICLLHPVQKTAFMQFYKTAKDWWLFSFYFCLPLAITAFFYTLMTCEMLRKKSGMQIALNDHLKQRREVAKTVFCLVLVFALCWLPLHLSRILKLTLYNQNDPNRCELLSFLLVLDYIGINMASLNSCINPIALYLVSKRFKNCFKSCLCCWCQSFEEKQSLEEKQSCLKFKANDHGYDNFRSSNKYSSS

Kd	Substance
0.142 µM	Endothelin-1 ([125I]-ET-1), ciliary muscle (from UniProt P05305)
0.0545 µM	Endothelin-1 ([125I]-ET-1), ciliary epithelium (from UniProt P05305)
